These results are taken from patent US20170189519A1.

What all share (assay): ELISA, coated CR6261, P. pastoris medium
Holding throughout (conditions): remark: other sources report otherwise
On the technique in general: In an ELISA, binding on a coated surface is turned into a signal by an enzyme label.

Assay [1] has as its target 218G11 (influenza A H1N1 A/Brisbane/59/2007).
Assay [2] has as its target 101D4 (influenza A H1N1 A/Brisbane/59/2007).
The target in assay [3] is 181H9 (influenza A H1N1 A/Brisbane/59/2007).
Assay [4] has as its target 185G7 (influenza A H1N1 A/Brisbane/59/2007).
In assay [5] the target is 188A8 (influenza A H1N1 A/Brisbane/59/2007).
Assay [6] addresses 176A5 (influenza A H1N1 A/Brisbane/59/2007).
Assay [7] addresses 145F2 (influenza A H1N1 A/Brisbane/59/2007).
Assay [8] concerns the target 275G3 (influenza A H1N1 A/Brisbane/59/2007).
In assay [9] the target is 234C5 (influenza A H1N1 A/Brisbane/59/2007).
Assay [10] has as its target 307A10 (influenza A H1N1 A/Brisbane/59/2007).
Assay [11] deals with 191C8 (influenza A H1N1 A/Brisbane/59/2007).
The target in assay [12] is 275D4 (influenza A H1N1 A/Brisbane/59/2007).
The target of assay [13] is 182C6 (influenza A H1N1 A/Brisbane/59/2007).
Assay [14] addresses 123G2 (influenza A H1N1 A/Brisbane/59/2007).
For assay [15], the target named is 188C8 (influenza A H1N1 A/Brisbane/59/2007).

B1: CR6261 (antibody, V domains shown)
VH: EVQLVESGAEVKKPGSSVKVSCKASGGPFRSYAISWVRQAPGQGPEWMGGIIPIFGTTKYAPKFQGRVTITADDFAGTVYMELSSLRSEDTAMYYCAKHMGYQVRETMDVWGKGTTVTVSS
VL: QSVLTQPPSVSAAPGQKVTISCSGSSSNIGNDYVSWYQQLPGTAPKLLIYDNNKRPSGIPDRFSGSKSGTSATLGITGLQTGDEANYYCATWDRRPTAYVVFGGGTKLTVLG
As for B1, the CR6261 binding signal is 959000 in assay [1]; 337000 in assay [2]; 311000 in assay [3]; 506000 in assay [4]; 279000 in assay [5]; 193000 in assay [6]. Further, the CR6261 binding signal was 499000 in assay [7]; 115000 in assay [8]; 278000 in assay [9]; 115000 in assay [10]; 309000 in assay [11]; 327000 in assay [12]. Moreover, the results for the CR6261 binding signal in assay [13], in [14] and in assay [15] were 92900, 499000 and 113000, respectively.
